# “Also recorded” adds a separate entry of the source.
# T1: Tie1-EpoR chimeric receptor (UniProt P14753+P35590)
# T1 construct: the PCR amplified extracellular part of human Tie1 (bp 37-2316 of X60975); expressed in transfected cells
# T1 sequence (P35590+P14753 with tags, fused parts or gaps): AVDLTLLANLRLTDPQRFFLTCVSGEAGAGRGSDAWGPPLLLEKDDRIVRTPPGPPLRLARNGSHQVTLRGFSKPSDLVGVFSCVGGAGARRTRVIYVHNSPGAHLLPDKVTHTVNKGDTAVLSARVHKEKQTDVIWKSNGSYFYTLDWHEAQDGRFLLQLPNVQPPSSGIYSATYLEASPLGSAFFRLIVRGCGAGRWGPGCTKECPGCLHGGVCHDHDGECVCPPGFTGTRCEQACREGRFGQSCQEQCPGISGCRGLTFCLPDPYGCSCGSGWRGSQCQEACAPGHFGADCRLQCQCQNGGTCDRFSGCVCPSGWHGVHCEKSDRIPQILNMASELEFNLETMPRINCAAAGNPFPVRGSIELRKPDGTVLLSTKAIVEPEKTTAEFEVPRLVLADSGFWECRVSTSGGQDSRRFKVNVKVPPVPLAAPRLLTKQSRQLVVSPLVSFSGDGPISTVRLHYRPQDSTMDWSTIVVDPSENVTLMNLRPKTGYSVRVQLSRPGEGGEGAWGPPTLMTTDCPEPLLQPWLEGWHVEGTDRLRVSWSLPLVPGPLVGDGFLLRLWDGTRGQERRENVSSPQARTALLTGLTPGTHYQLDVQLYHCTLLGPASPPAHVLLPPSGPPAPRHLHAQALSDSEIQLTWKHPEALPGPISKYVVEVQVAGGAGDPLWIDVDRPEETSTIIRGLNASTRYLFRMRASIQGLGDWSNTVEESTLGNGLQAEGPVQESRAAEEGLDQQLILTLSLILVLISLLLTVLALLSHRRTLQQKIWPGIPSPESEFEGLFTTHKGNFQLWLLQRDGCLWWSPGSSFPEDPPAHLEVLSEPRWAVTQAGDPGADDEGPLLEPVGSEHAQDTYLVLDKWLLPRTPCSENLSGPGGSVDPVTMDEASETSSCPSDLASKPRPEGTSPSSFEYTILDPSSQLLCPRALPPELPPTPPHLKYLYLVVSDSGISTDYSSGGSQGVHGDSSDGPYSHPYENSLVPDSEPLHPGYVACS
# How the values were obtained:
# [1] = tested on: SW-480 (colorectal cancer) cells; assay: SW-480 colorectal cancer xenograft in nu/nu mice; assay type: in vivo, mouse; conditions: average per group
# Experimental: Mice (nu/nu) were implanted subcutaneously with 5×10^6 SW-480 (colorectal cancer) cells. After 12 days, when tumors reached approximately 100-200 mg, the mice were separated into 5 groups and treated with the following agents (or left untreated): • 1—Untreated • 2—Vehicle (PBS) • 3—Cisplatin (4 mg/kg/, IV, q2d×5 times) • 4—A2-SV (negative control antibody @ 10 mg/kg, IP, q2d×14 times) • 5—DX-2220 (anti-Tie-1 antibody @ 10 mg/kg, IP, q2d×14 times)
# Throughout the study, the length (L) and width (W) of any tumors that developed were measured in millimeters using calibrated vernier calipers, where L is the longer of the two dimensions. When applicable, tumor weight (M) in milligrams was calculated by using the formula associated with a prolate ellipsoid: M=(L×W^2)/2. […] A2-SV is an isotype matched (IgG1) negative control antibody that binds strepavidin.
# [2] = tested on: bFGF-induced angiogenesis; assay: […] plug assay, bFGF-induced angiogenesis in NMRI nu/nu mice; assay type: in vivo, mouse; conditions: first assay, day 7; bFGF 80 ng/ml; antibody 10 μg/ml in plug; E3 = germlined variant, IgG4
# Experimental: The germlined variant of the E3 IgG antibody was evaluated in an in vivo assay for angiogenesis induced by bFGF in […]™ plugs. Growth factor reduced […]™ (BD Biosciences, catalog # 354230) was supplemented with 80 ng/ml of bFGF (R&D Systems, catalog #234-FSE). The A2-SV or an IgG4 E3 antibody (10 μg/ml) or PBS was injected subcutaneously into the abdominal area of NMRI nu/nu mice (150 μl of Matrigel/plug).
# In the first assay, two mice were injected with […]™ supplemented with bFGF and soluble VEGFR-1 (10 μg/ml) as a positive control for an angiogenic inhibitor. At day 7 post-implantation mice were anesthetized and perfused through heart with 4% paraformaldehyde (PFA) in phosphate buffered saline (PBS). […]™ plugs and a piece of liver were removed and embedded in paraffin. Sections were cut and stained with hematoxylin and eosin (H&E).
# In a second assay, mice were treated as described above, and then anesthetized eight days post-implantation and injected with fluorescein-conjugated tomato (lycopersicon esculentum) lectin (100 μg in 200 μl of PBS; Vector, catalog #FL-1171) into the tail vein. After five min circulation the animals were perfused through the heart with 10 ml of PBS followed by 10 ml of 4% PFA in PBS. […]™ plugs and pieces of kidney and liver were removed and frozen in OCT (Tissue-Tek). Nuclei were visualized on sections by using […]® mounting medium containing DAPI (Vector) and analyzed under fluorescence microscopy.
# Tie1 = Tie1 (Homo sapiens, UniProt P35590); assay: Immunohistochemistry of matched human tumor and normal tissue sections; design: from tissue; host or cells: fresh frozen normal and tumor tissue (e.g. lung, kidney, skin, breast); conditions: 10 μg/ml, fresh frozen tissue
# Chain of Tie1 (P35590 22-1138): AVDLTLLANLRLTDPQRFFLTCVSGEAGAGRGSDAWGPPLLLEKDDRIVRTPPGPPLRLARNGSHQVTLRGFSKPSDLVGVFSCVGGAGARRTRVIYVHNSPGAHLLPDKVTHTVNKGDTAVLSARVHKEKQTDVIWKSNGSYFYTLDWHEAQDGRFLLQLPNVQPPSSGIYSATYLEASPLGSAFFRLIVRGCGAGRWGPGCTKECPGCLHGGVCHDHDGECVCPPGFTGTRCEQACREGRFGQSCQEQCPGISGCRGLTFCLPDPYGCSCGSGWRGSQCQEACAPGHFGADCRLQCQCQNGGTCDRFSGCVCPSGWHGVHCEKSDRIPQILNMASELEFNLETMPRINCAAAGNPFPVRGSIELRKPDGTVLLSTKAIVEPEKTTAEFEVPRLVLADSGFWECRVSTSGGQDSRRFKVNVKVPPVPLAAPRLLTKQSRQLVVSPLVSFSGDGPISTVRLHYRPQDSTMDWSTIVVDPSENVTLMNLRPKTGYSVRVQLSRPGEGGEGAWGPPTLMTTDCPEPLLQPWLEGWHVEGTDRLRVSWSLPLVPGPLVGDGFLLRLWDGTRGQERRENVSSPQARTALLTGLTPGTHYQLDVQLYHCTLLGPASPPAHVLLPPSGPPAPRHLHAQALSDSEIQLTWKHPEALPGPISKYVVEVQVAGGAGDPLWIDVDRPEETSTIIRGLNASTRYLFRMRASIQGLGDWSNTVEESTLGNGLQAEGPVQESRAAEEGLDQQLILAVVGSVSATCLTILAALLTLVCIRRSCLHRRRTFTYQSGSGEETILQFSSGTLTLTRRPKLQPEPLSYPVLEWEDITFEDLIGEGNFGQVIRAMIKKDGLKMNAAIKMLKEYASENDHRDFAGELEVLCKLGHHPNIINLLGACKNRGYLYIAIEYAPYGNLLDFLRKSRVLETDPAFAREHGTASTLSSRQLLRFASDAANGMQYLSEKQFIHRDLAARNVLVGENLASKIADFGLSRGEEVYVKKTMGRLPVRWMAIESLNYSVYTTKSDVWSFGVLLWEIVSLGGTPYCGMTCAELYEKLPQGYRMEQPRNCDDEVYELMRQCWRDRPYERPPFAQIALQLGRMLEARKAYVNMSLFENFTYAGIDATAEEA
# Experimental: The Tie-1 antibodies were biotinylated using the EZ-link Sulfo-NHS-SS-Biotin (Pierce, Cat. 21331). For Tie-1/Fc and Tie-1-His, the reaction was performed for 2 hours on ice in 50 mM sodium carbonate buffer, pH 9.6, in the presence of a 5-fold molar excess of biotinylating agent. For the antibodies, the reaction was performed for 2 hours on ice in PBS, in the presence of a 15-fold molar excess of EZ-link Sulfo-NHS-SS-Biotin. The reaction was stopped by the addition of Tris-HCl, pH 7.5 (50 mM final concentration) followed by a 1-hour incubation on ice. Samples were then dialyzed against PBS.
# Various normal and tumor tissue sections were stained with biotinylated antibodies. A mouse monoclonal anti-Tie1 antibody (7e8) (Alitalo laboratory, University of Helsinki) was used as a positive control. Sections without primary antibody served as negative control. All samples were fresh frozen tissues and staining was performed with the TSA-kit (Perkin-Elmer Life Sciences). After acetone fixation (10-20 min, −20° C.) the slides were treated with 0.73% H2O2 for 10 min to reduce endogenous peroxidase activity followed by blocking for 30 min with TNB buffer. Sections ([…] thick) were incubated with primary antibodies (10 μg/ml) overnight at 4° C. Sections with the mouse monoclonal anti-tie1 antibody (7e8) were treated with biotinylated anti-mouse antibodies (VectaStain) before the addition of streptavidin-HRP. Signal was amplified by using a TSA kit and the visualized by AEC (235 ml NaAc, 15 ml AEC (stock solution: 1600 mg 3-amino-9-ethyl-carbazole and 480 ml N-dimethylformamide), 250 μl H2O2).
# [3] = target: T1, Tie1-EpoR chimeric receptor; assay: Ba/F3 bioassay (Tie1/EpoR chimeric BaF3 cell assay), MTT viability; assay type: cell-based, human; conditions: 100 ng/ml E3 IgG together with 100 (1:1) or 500 (1:5) ng/ml of the other antibody
# From the text: To generate Tie1-EpoR expressing Ba/F3 cells for the bioassay, Ba/F3 pre-B cells were stably transfected with a nucleic acid that expresses chimeric receptor containing the extracellular domain of human Tie1 fused with the transmembrane and cytoplasmic domains of the mouse erythropoietin receptor. The nucleic acid used was a Tie1-EpoR chimeric cDNA in a pEF-BOS expression vector. The nucleic acid encoding the chimeric receptor was constructed by cloning the PCR amplified extracellular part of human Tie1 (bp 37-2316 of X60975) as EcoRI-BglII fragment into mEpoR-pcDNA vector. The cDNA encoding for the chimeric receptor consisting of the extracellular part of Tie1 fused with the transmembrane and intracellular domains of EpoR was subcloned into the pEF-BOS expression vector. Vector was linearized and co-transfected into Ba/F3 cells with pcDNA3.1(+) Zeo vector (Invitrogen). Stable cell pools were generated by selection with 250 μg/ml Zeocin. The expression of Tie1/EpoR fusion protein in several clones was analyzed by Western blotting with an antibody against EpoR.
# To perform the assays, Ba/F3 cells expressing the Tie 1-EpoR chimera were split in 96-well microtiter plates at 50 000 cells/well in the presence of the indicated concentrations of anti-Tie1 antibodies. As controls, Zeocin resistant pools not expressing the Tie1-EpoR were used. After 48 h, the viability of the cells was determined by adding MTT (3-(4,5-dimethylthiazol-2-yl)-2,5-diphenyl tetrazolium bromide (Sigma), 0.5 mg/ml), followed by further 2 h of culture, addition of an equal volume of cell lysis solution (10% SDS, 10 mM HCl) and incubation overnight at 37° C. Absorbance was measured at 540 nm.
# Although no ligand for Tie1 has been identified, we used the following efficient screening method for Tie1-binding proteins. Interleukin-3 dependent pre-B-lymphocyte (Ba/F3) cells were transfected with a construct that expresses a Tie1-EpoR fusion protein. Since Ba/F3 cells are IL-3 dependent, they die unless IL-3 is provided. However, Tie-EpoR receptor expressing Ba/F3 cells can survive and proliferate if the medium contains a Tie1-binding protein, either a natural ligand or an artificial mimetic. Cell survival can be quantitated, e.g., by colorimetric MTT-assay, which measures mitochondrial activity.
molecule,measurement,setting,value
"N.N.[Cl][Pt][Cl] [cisplatin, reference compound]",Tumor Weight,[1]; 5 days after cell injection (before treatment start at day 12),48 mg
same,Tumor Weight,[1]; 9 days after cell injection (before treatment start at day 12),69 mg
same,Tumor Weight,[1]; 12 days after cell injection (treatment start),137 mg
same,Tumor Weight,[1]; 15 days after cell injection,185 mg
same,Tumor Weight,[1]; 19 days after cell injection,207 mg
same,Tumor Weight,[1]; 22 days after cell injection,235 mg
same,Tumor Weight,[1]; 26 days after cell injection,310 mg
same,Tumor Weight,[1]; 28 days after cell injection,363 mg
"soluble VEGFR1: soluble VEGFR-1 (10 μg/ml), positive control for an angiogenic inhibitor (protein, UniProt P17948 27-758, looked up, extracellular domain) extracellular domain: SKLKDPELSLKGTQHIMQAGQTLHLQCRGEAAHKWSLPEMVSKESERLSITKSACGRNGKQFCSTLTLNTAQANHTGFYSCKYLAVPTSKKKETESAIYIFISDTGRPFVEMYSEIPEIIHMTEGRELVIPCRVTSPNITVTLKKFPLDTLIPDGKRIIWDSRKGFIISNATYKEIGLLTCEATVNGHLYKTNYLTHRQTNTIIDVQISTPRPVKLLRGHTLVLNCTATTPLNTRVQMTWSYPDEKNKRASVRRRIDQSNSHANIFYSVLTIDKMQNKDKGLYTCRVRSGPSFKSVNTSVHIYDKAFITVKHRKQQVLETVAGKRSYRLSMKVKAFPSPEVVWLKDGLPATEKSARYLTRGYSLIIKDVTEEDAGNYTILLSIKQSNVFKNLTATLIVNVKPQIYEKAVSSFPDPALYPLGSRQILTCTAYGIPQPTIKWFWHPCNHNHSEARCDFCSNNEESFILDADSNMGNRIESITQRMAIIEGKNKMASTLVVADSRISGIYICIASNKVGTVGRNISFYITDVPNGFHVNLEKMPTEGEDLKLSCTVNKFLYRDVTWILLRTVNNRTMHYSISKQKMAITKEHSITLNLTIMNVSLQDSGTYACRARNVYTGEEILQKKEITIRDQEAPYLLRNLSDHTVAISSSTTLDCHANGVPEPQITWFKNNHKIQQEPGIILGPGSSTLFIERVTEEDEGVYHCKATNQKGSVESSAYLTVQGTSDKSNLE",vessel-like structures in MATRIGEL plugs (H&E staining),[2],neither modification of the matrix nor organization of the cells
"D11: anti-Tie1 antibody; VH SEQ ID NO:84, VL SEQ ID NO:86 (antibody, V domains shown, Synthetically generated peptide) VH: EVQLLESGGGLVQPGGSLRLSCAASGFTFSGYAMWWVRQAPGKGLEWVSSISPSGGATAYADSVKGRFTISRDNSKNTLYLQMNSLRAEDTAVYYCARDAGSYYWGWFDPWGQGTLVTVSSASTKGPSVFP VL: HSAQDIQMTQSPATLSLSPGERATLSCRASQSISSYLAWYQQKPGQPPRLLIYDASSRVTGIPARFSGSGFGTDFTLTISSLEPEDFAVYYCLQRSSWPRTFGQGTKLEIK",staining of breast carcinoma,Tie1,stained also other structures in addition to vessels
same,staining of kidney,Tie1,stained kidney tubules in addition to the vessels
same,staining of lung carcinoma,Tie1,stained structures other than vessels
same,staining of melanoma tissue,Tie1,also stained other surrounding structures
same,staining of normal lung (large veins),Tie1,faint staining
same,staining of normal skin,Tie1,stained blood vessels very faintly
same,staining of veins and capillaries of mammary tissue (breast),Tie1,stained those structures rather faintly
same,effect on the survival effect of E3 IgG in Tie1-EpoR Ba/F3 assay,[3],completely blocked the viability; also recorded: blocked completely the survival effect of E3 IgG; also recorded: counteract the agonistic activity of E3
